{
  "source": "paper PMC8372230",
  "molecular_target": "extracellular domain (residues Q18 to S740) of human ACE2 fused with human IgG1 Fc (human) (UniProt Q9BYF1)",
  "sequence (Q9BYF1 18-740)": "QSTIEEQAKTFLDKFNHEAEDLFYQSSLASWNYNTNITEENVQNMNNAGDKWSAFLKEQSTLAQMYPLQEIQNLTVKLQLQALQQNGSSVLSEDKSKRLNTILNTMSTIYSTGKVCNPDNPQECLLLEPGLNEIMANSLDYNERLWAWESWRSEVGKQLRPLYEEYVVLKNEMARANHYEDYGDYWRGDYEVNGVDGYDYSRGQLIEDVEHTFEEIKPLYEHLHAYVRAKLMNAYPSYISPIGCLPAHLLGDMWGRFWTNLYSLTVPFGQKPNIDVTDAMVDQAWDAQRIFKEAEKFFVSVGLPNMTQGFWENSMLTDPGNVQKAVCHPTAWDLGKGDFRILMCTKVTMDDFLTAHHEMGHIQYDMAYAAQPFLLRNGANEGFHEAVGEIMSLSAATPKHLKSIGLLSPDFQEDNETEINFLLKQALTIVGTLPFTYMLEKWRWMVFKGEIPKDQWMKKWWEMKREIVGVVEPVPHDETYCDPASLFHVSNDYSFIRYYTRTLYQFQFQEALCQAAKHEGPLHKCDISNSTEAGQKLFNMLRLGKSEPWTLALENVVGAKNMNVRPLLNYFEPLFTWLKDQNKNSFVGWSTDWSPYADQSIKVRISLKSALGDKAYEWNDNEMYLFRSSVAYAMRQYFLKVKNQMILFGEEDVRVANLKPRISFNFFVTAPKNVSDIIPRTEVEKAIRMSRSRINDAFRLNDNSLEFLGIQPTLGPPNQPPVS",
  "experiment": "BLI",
  "data": [
    {"substance": "yeast-derived monomeric RBD of SARS-CoV-2 (residues 320-550, C-terminal 6x His-tag) (domain or fragment)", "values": [
      {"measurement": "Kd", "result": 9.07, "unit": "nM"},
      {"measurement": "koff", "result": 0.00239, "unit": "s⁻¹"},
      {"measurement": "kon", "result": 264000, "unit": "M⁻¹ s⁻¹"}
    ]}
  ]
}
